The values that follow come from publication PMC3639042 (Molecular Biology of the Cell, 2013).

The target in one test is T1, Hof1-4E–3HA (budding yeast, UniProt Q05080 1-669, S313E | S421E | S533E | S563E).
T1 sequence (looked up): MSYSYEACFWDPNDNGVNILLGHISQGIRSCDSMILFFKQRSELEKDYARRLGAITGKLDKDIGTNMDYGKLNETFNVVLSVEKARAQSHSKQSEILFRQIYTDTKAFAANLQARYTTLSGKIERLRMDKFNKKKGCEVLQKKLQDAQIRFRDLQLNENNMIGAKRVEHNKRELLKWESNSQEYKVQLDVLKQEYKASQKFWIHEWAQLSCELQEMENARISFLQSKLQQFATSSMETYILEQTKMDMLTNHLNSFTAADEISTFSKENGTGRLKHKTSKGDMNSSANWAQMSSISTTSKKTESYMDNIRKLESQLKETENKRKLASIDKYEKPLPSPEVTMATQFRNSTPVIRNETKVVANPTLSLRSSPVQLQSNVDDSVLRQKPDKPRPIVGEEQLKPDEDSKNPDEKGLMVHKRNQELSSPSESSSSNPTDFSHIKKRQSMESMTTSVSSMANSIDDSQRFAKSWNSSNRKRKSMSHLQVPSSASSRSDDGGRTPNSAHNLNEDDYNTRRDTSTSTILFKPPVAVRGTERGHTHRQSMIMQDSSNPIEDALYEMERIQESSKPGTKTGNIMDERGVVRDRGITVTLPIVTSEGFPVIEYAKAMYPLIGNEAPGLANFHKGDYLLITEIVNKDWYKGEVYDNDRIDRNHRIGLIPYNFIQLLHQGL
Description: co-IP.

For test [1], the target named is septin complex (6His-Cdc12-Cdc3-Cdc10-Cdc11) (budding yeast, UniProt P32468 1-407; P32457 1-520; P25342 1-322; P32458 1-415). As to the kind of experiment: pull-down.
septin complex (6His-Cdc12-Cdc3-Cdc10-Cdc11), sequence (P32468 whole entry, chain 1 of 3): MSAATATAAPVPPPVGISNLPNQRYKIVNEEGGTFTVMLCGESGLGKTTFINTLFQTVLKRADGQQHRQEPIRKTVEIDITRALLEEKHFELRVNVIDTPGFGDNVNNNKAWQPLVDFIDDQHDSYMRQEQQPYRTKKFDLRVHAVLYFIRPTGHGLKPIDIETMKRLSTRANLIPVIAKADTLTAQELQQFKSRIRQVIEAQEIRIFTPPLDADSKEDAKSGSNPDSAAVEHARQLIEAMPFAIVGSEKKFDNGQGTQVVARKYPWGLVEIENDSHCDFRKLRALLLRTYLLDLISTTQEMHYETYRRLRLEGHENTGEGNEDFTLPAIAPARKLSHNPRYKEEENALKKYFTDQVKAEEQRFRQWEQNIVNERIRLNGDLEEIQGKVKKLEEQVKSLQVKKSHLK
septin complex (6His-Cdc12-Cdc3-Cdc10-Cdc11), sequence (P32457 whole entry, chain 2 of 3): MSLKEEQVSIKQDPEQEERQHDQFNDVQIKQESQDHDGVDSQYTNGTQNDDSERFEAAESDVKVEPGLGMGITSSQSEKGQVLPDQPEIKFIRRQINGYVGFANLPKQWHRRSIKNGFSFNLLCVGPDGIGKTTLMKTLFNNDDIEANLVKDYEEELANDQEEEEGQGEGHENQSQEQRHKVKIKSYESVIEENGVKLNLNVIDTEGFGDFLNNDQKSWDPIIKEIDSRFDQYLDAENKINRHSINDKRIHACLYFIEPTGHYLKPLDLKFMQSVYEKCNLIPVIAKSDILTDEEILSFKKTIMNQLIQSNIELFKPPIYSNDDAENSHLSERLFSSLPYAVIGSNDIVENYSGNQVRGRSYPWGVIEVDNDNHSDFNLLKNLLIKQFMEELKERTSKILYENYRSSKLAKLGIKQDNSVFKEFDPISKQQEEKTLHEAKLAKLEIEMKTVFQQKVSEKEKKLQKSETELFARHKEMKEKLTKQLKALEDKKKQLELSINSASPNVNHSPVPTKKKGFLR
septin complex (6His-Cdc12-Cdc3-Cdc10-Cdc11), sequence (P32458 whole entry, chain 4 of 3): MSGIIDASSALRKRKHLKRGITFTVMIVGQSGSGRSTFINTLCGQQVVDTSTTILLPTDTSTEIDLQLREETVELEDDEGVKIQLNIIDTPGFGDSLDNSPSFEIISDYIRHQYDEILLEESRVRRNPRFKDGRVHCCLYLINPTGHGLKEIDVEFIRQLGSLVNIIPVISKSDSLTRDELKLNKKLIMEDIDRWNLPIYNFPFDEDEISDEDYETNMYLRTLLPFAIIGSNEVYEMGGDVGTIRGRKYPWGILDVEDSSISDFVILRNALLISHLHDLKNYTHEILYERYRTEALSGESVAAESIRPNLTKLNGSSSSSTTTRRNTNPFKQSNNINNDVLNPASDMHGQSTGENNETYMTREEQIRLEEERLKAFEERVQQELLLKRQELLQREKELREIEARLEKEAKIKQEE

B1: Cdc10-TAP (natural protein, budding yeast, UniProt P25342 1-322, looked up)
chain: MDPLSSVQPASYVGFDTITNQIEHRLLKKGFQFNIMVVGQSGLGKSTLINTLFASHLIDSATGDDISALPVTKTTEMKISTHTLVEDRVRLNINVIDTPGFGDFIDNSKAWEPIVKYIKEQHSQYLRKELTAQRERFITDTRVHAILYFLQPNGKELSRLDVEALKRLTEIANVIPVIGKSDTLTLDERTEFRELIQNEFEKYNFKIYPYDSEELTDEELELNRSVRSIIPFAVVGSENEIEINGETFRGRKTRWSAINVEDINQCDFVYLREFLIRTHLQDLIETTSYIHYEGFRARQLIALKENANSRSSAHMSSNAIQR
As for B1, the “fold less coimmunoprecipitated than with Hof1-3HA” value with Hof1-4E–3HA was 2.5 fold.

B2: GST-HOF1-SID (aa 200–355) (domain or fragment, budding yeast, UniProt Q05080 200-355, looked up)
chain: KFWIHEWAQLSCELQEMENARISFLQSKLQQFATSSMETYILEQTKMDMLTNHLNSFTAADEISTFSKENGTGRLKHKTSKGDMNSSANWAQMSSISTTSKKTESYMDNIRKLSSQLKETENKRKLASIDKYEKPLPSPEVTMATQFRNSTPVIRN
For the molecule B2, in test [1], the binding result was “binds”.
